From doi:10.1101/2021.01.07.425699
Where two headings read alike, the source gives them in different places.

How the values were obtained:
[1] = target: T1, AtLFYΔ40 (LEAFY) (Arabidopsis thaliana, UniProt Q00958 41-420, del1-40); test: EMSA
T1 sequence: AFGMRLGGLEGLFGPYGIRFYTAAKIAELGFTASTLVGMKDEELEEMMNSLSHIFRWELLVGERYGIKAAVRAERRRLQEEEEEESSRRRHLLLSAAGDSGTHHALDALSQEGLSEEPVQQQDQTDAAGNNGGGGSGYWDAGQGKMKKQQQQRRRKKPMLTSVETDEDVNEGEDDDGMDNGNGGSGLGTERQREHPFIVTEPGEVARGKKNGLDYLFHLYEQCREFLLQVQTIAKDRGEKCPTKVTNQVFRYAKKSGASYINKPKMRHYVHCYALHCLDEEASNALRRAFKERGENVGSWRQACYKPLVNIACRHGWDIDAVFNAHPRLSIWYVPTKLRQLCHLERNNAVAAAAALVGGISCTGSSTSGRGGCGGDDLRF

[2] = target: T1, AtLFYΔ40 (LEAFY); test: EMSA; remark: listed apart in the source

B1: 601 free DNA (dsDNA)
DNA 1: ATCGATGTATATATCTGACACGTGCCTGGAGACTAGGGAGTAATCCCCTTGGCGGTTAAAACGCGGGGGACAGCGCGTACGTGCGTTTAAGCGGTGCTAGAGCTGTCTACGACCAATTGAGCGGCCTCGGCACCGGGATTCTGAT
DNA 2: ATCAGAATCCCGGTGCCGAGGCCGCTCAATTGGTCGTAGACAGCTCTAGCACCGCTTAAACGCACGTACGCGCTGTCCCCCGCGTTTTAACCGCCAAGGGGATTACTCCCTAGTCTCCAGGCACGTGTCAGATATATACATCGAT
[1]
  binding result: binds

B2: C2 free DNA (dsDNA)
DNA 1: ATCGATGTATATATCTGACACGTGCCTGGAGACTAGGGAGTAATCCCCTTGGCGGTTAAAACGCATTGACCAGCGGGTAATTGCGTTTAAGCGGTGCTAGAGCTGTCTACGACCAATTGAGCGGCCTCGGCACCGGGATTCTGAT
DNA 2: ATCAGAATCCCGGTGCCGAGGCCGCTCAATTGGTCGTAGACAGCTCTAGCACCGCTTAAACGCAATTACCCGCTGGTCAATGCGTTTTAACCGCCAAGGGGATTACTCCCTAGTCTCCAGGCACGTGTCAGATATATACATCGAT
[2]
  binding result: binds
